Reference: article PMC6298231

Molecular target: Thrombospondin-1, full-length 185 kDa protein released by endothelial cells (human (endogenous in microvascular endothelial cells)) (UniProt P07996)
Test: non-reducing SDS-PAGE with immunoblot

How did the stoichiometry N turn out when “Thrombospondin-1, full-length 185 kDa protein released by endothelial cells (from UniProt P07996 19-1170) (natural protein)” was run?
The stoichiometry N was 3.
